Results reported in paper PMC4836915 (Journal of cystic fibrosis : official journal of the …, 2015).

Target: T1, recombinant Porin D (P. aeruginosa PAO1, UniProt P32722 24-443)
T1 sequence: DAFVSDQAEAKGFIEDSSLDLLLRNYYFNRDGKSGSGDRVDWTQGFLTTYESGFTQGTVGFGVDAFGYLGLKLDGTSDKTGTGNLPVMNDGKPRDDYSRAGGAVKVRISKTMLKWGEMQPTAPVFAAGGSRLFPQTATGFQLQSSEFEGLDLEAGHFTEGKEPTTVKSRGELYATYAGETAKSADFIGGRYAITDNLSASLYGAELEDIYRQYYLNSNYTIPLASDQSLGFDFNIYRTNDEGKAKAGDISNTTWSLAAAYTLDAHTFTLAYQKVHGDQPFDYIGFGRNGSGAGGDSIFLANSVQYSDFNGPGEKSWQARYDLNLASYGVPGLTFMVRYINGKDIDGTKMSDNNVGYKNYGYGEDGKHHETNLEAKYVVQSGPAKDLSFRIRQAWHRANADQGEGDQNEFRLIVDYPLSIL
Assay: BLI

B1: recombinant vitronectin aa 80-396 (domain or fragment, human, UniProt P04004 80-396, looked up)
chain: DGEEKNNATVHEQVGGPSLTSDLQAQSKGNPEQTPVLKPEEEAPAPEVGASKPEGIDSRPETLHPGRPQPPAEEELCSGKPFDAFTDLKNGSLFAFRGQYCYELDEKAVRPGYPKLIRDVWGIEGPIDAAFTRINCQGKTYLFKGSQYWRFEDGVLDPDYPRNISDGFDGIPDNVDAALALPAHSYSGRERVYFFKGKQYWEYQFQHQPSQEECEGSSLSAVFEHFAMMQRDSWEDIFELLFWGRTSAGTRQPQFISRDWHGVPGQVDAAMAGRIYISGMAPRPSLAKKQRFRHRNRKGYRSQRGHSRGRNQNSRRP
- Kd: 3.6 nM
